Results published in patent EP0251446B1, “Non-human Carbonyl hydrolase mutants, DNA sequences and vectors encoding same and hosts transformed with said vectors” (GENENCOR INTERNATIONAL, INC., priority 1986, dated 1988).

Columns and labels:
Assay in all cases: Kinetics of p-nitroanilide substrate hydrolysis, Q156
Type in all cases: biochemical, B. amyloliquefaciens
[1] = substrate: C[C@H](NC(=O)CCC(=O)O)C(=O)N[C@@H](C)C(=O)N1CCC[C@H]1C(=O)N[C@@H](CCC(N)=O)C(=O)Nc1ccc([N+](=O)[O-])cc1; conditions: other: Table XIV, 156 Gln / 166 Gly; value in parentheses; synthetic substrate with label as P-1 amino acid; 37.0 °C
Description: (§1) Wild-type subtilisin was purified from B. subtilis culture supernatants expressing the B. amyloliquefaciens subtilisin gene (Wells, J.A., et al. (1983) Nucleic Acids Res. 11, 7911-7925) as previously described (Estell, D.A., et al. (1985) J. Biol. Chem. 260, 6518-6521). Details of the synthesis of tetrapeptide substrates having the form succinyl-L-AlaL-AlaL-ProL-[X]-p-nitroanilide (where X is the P1 amino acid) are described by DelMar, E.G., et al. (1979) Anal. Biochem. 99, 316-320. Kinetic parameters, Km(M) and kcat-(s-^1) were measured using a modified progress curve analysis (Estell, D.A., et al. (1985) J. Biol. Chem. 260, 6518-6521). Briefly, plots of rate versus product concentration were fit to the differential form of the rate equation using a non-linear regression algorithm. Errors in kcat and Km for all values reported are less than five percent. The various substrates in Table VIII are ranged in order of decreasing hydrophobicity. Nozaki, Y. (1971), J. Biol. Chem. 246, 2211-2217; Tanford C. (1978) Science 200, 1012).
(§2) Construction of position 156 single mutants were prepared by ligation of the three fragments (1-3) indicated at the bottom of Figure 21. Fragment 3, containing the carboxy-terminal portion of the subtilisin gene including the wild type position 166 codon, was isolated as a 610 bp Sacl-BamHI fragment. Fragment 1 contained the vector sequences, as well as the amino-terminal sequences of the subtilisin gene through codon 151. To produce fragment 1, a unique Kpnl site at codon 152 was introduced into the wild type subtilisin sequence from pS4.5. Site-directed mutagenesis in M13 employed a primer having the sequence 5'-TA-GTC-GTT-GCG-GTA-CCC-GGT-AAC-GAA-3' to produce the mutation. Enrichment for the mutant sequence was accomplished by restriction with Kpnl, purification and self ligation. The mutant sequence containing the Kpnl site was confirmed by direct plasmid sequencing to give pV152. pV152 (-1 µg) was digested with Kpnl and treated with 2 units of DNA polymerase I large fragment (Klenow fragment from Boeringer-Mannheim) plus 50 µM deoxynucleotide triphosphates at 37°C for 30 min. This created a blunt end that terminated with codon 151. The DNA was extracted with 1:1 volumes phenol and CHC13 and DNA in the aqueous phase was precipitated by addition of 0.1 volumes 5M ammonium acetate and two volumes ethanol. After centrifugation and washing the DNA pellet with 70% ethanol, the DNA was lyophilized. DNA was digested with BamHl and the 4.6kb piece (fragment 1) was purified by acrylamide gel electrophoresis followed by electroelution. […] The top strand was synthesized to contain a glutamine codon, and the complementary bottom strand coded for serine at 156. Ligation of heterophosphorylated cassettes leads to a large and favorable bias for the phosphorylated over the non-phosphorylated oligonucleotide sequence in the final segrated plasmid product. Therefore, to obtain Q156 the top strand was phosphorylated, and annealed to the non-phosphorylated bottom strand prior to ligation. Similarly, to obtain S156 the bottom strand was phosphorylated and annealed to the non-phosphorylated top strand. Mutant sequences were isolated after ligation and transformation, and were confirmed by restriction analysis and DNA sequencing as before. To express variant subtilisins, plasmids were transformed into a subtilisin-neutral protease deletion mutant of B. subtilis, BG2036, as previously described. Cultures were fermented in shake flasks for 24 h at 37 ° C in LB media containing […] chloramphenicol and subtilisin was purified from culture supernatants as described. Purity of subtilisin was greater than 95% as judged by SDS PAGE.
(§3) These mutant plasmids designated pS156 and pQ156 and mutant subtilisins designated S156 and Q156 were analyzed with the above synthetic substrates where P-1 comprised the amino acids Glu, Gln, Met and Lys. The results of this analyses are presented in Example 9. […]

[2] = substrate: C[C@H](NC(=O)CCC(=O)O)C(=O)N[C@@H](C)C(=O)N1CCC[C@H]1C(=O)N[C@@H](CCC(=O)O)C(=O)Nc1ccc([N+](=O)[O-])cc1; conditions: 37.0 °C
Description: as §1, §2, §3

[3] = substrate: C[C@H](NC(=O)CCC(=O)O)C(=O)N[C@@H](C)C(=O)N1CCC[C@H]1C(=O)N[C@@H](CCCCN)C(=O)Nc1ccc([N+](=O)[O-])cc1; conditions: other: Table XIV, 156 Gln / 166 Gly; value in parentheses; synthetic substrate with label as P-1 amino acid; 37.0 °C
Description: as §1, §2, §3

[4] = substrate: C[C@H](NC(=O)CCC(=O)O)C(=O)N[C@@H](C)C(=O)N1CCC[C@H]1C(=O)N[C@@H](Cc1ccccc1)C(=O)Nc1ccc([N+](=O)[O-])cc1; conditions: other: Table XIII, enzyme E156; synthetic substrate with label as P-1 residue; 37.0 °C
Description: as §1, §2, §3

[5] = substrate: CSCC[C@H](NC(=O)[C@@H]1CCCN1C(=O)[C@H](C)NC(=O)[C@H](C)NC(=O)CCC(=O)O)C(=O)Nc1ccc([N+](=O)[O-])cc1; conditions: other: Table XIV, 156 Gln / 166 Gly; value in parentheses; synthetic substrate with label as P-1 amino acid; 37.0 °C
Description: as §1, §2, §3

[6] = other: Table XIII, enzyme E156, synthetic substrate with label as P-1 residue

B1: B. amyloliquefaciens subtilisin variant Q156 (Glu156 to Gln) (Bacillus amyloliquefaciens; E263Q) (protein)
chain: AQSVPYGVSQIKAPALHSQGYTGSNVKVAVIDSGIDSSHPDLKVAGGASMVPSETNPFQDNNSHGTHVAGTVAALNNSIGVLGVAPSASLYAVKVLGADGSGQYSWIINGIEWAIANNMDVINMSLGGPSGSAALKAAVDKAVASGVVVVAAAGNQGTSGSSSTVGYPGKYPSVIAVGAVDSSNQRASFSSVGPELDVMAPGVSIQSTLPGNKYGAYNGTSMASPHVAGAAALILSKHPNWTNTQVRSSLENTTTKLGDSFYYGKGLINVQAAAQ
notes: at various amino acid residues within the mature form of the subtilisin molecule; made in house; host or cells: Bacillus subtilis BG2036
[1]
  Km: 155 µM
[2]; [6]
  Km: 3300 µM
  kcat: 0.90 s-^1
  kcat/Km: 270 M⁻¹ s⁻¹
[2]; other: Table XIV, 156 Gln / 166 Gly, value in parentheses, synthetic substrate with label as P-1 amino acid
  Km: 3310 µM
[3]
  Km: 1510 µM
[4]
  Km: 45 µM
  kcat: 48.00 s-^1
  kcat/Km: 1.1e+06 M⁻¹ s⁻¹
[5]
  Km: 24.5 µM
